In patent publication CN114437205A:

Target: SARS S-his (SARS)

B1: 抗体CT150 (antibody, V domains shown)
VH: QEQLVESGGGVVQPGRSLRLSCAASGFTFSSYAMHWVRQAPGEGLEWVALISYDGDNKYYADSVKGRFTISRDNSKTTLFLQMNSLRAEDTAVYYCARDRGSYFYGVDVWGQGATVTVSS
VL: DIQLTQSPSFLSASVGDRVTITCRASQDINSYLAWYQQKPGKAPKLLIYAASTLQSGVPSRFSGSGSGTEFTLTISSLQPEDFATYYCQQLNSYPIFTFGPGTKVDIK
  EC50: 0.129 mg/L
